The results in this text go back to PMC5880107, “The Sequence-specific Peptide-binding Activity of the Protein Sulfide Isomerase AGR2 Directs Its Stable Binding to the Oncogenic Receptor EpCAM*^([image sbox.jpg])” (Molecular & Cellular Proteomics : MCP, 2018).

No end group written: not given here.

Broadly, the Kd is the constant that tells how readily two partners part at equilibrium.

First the molecules themselves.
B1: His-AGR2 WT (mature AGR2, amino acids 21-175, N-terminal 6xHis tag; plasmid pmAGR2) (natural protein, human)
chain: RDTTVKPGAKKDTKDSRPKLPQTLSRGWGDQLIWTQTYEEALYKSKTSSKPLMIIHHLDECPHSQALKKVFAENKEIQKLAEQFVLLNLVYETTDKHLSPDGQYVPRIMFVDPSLTVRADITGRYSNRLYAYEPADTALLLDNMKKALKLLKTEL
notes: human AGR2, mature form without the ER leader, residues 21-175; also called wt-AGR2; wild-type AGR2; source: E. coli BL21-AI, purified (Ni-NTA agarose; gel filtration buffer exchange for HDX)

For test [1], the target named is free consensus site containing peptides. In words: fluorescence polarisation; data not shown; AGR2 binding to free consensus site containing peptides in solution. Background: Fluorescence polarisation rises when a labelled molecule tumbles more slowly, as on binding a larger partner.
For test [2], the target named is T1, 16mer AGR2-interacting peptide SGSG-HLPTTIYYGPPG
T1 construct: peptide A4 with an N-terminal SGSG stretch, as used for hydrogen-deuterium exchange; also called peptide A4 (in the HDX experiment); consensus site peptide A4; source: synthetic peptide (Chiron Mimotopes), stock 5 mg/ml in DMSO
T1 peptide: SGSGHLPTTIYYGPPG
In words: HDX-MS; His-AGR2 WT 1 μM incubated 30 min with peptide 10 μM (1% DMSO), 10-fold dilution into deuterated buffer (20 mM Tris-HCl pD 7.6, 150 mM NaCl, 10 mM MgCl2), room temperature, 30 s to 3 h, pepsin. Particulars: both partners purified.

The target in test [3] is T2, biotinylated Peptide A4 (AGR2-binding peptide aptamer, HLPTTIYYGPPG) (also: biotinylated, end not given here).
T2 construct: also called TTIYY-containing peptide; source: synthetic peptide (Chiron Mimotopes)
T2 peptide: HLPTTIYYGPPG
In words: ELISA; biotinylated peptide A4 (5 μg/well) captured on streptavidin-coated microtitre plate; wt or mutant AGR2 titrated in 3% BSA in PBS-T, 1 h room temperature; detected with AGR2 antibody K47, RLU. The following applies: both partners purified.

In test [4] the target is T3, His-EpEX-CO, extracellular domain of EpCAM (amino acids 24-265), N-terminal 6xHis tag (human).
T3 construct: human EpCAM extracellular domain (EpEX), amino acids 24-265 of NM_002354; For HDX the protein was eluted with 1 mM DTT in the final buffer; also called wt-EpCAM; His-EpCAM; source: E. coli BL21-DE3, solubilised with 7 M urea, purified (Ni-NTA agarose); not shown: His6 followed by a TEV protease site, N-terminal, kept
T3 chain: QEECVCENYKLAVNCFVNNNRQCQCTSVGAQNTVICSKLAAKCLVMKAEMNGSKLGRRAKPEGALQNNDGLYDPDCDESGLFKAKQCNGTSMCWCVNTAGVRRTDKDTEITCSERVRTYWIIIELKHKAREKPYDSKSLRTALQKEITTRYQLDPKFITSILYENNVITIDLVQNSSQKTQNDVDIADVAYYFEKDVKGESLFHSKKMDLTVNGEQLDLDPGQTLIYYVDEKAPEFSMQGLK
Description: ELISA; His-EpCAM (EpEX, wt or Y251A) immobilised on polystyrene microtitre plate in 0.1 M NaHCO3 pH 8.6; AGR2 wt or mutants titrated in the mobile phase (0-1 μg), 1 h room temperature; without or with 1 mM DTT at the binding or the blocking step; detected with AGR2 antibody K47, RLU. The following applies: both partners purified. A general note: ELISA stands for enzyme-linked immunosorbent assay.

Test [5] has as its target B1. In words: ELISA; competition: biotinylated peptide A4 on the streptavidin-coated solid phase; fixed 1 μg AGR2 added with 100 ng of the indicated non-biotinylated synthetic peptide; AGR2 binding in RLU. The following applies: both partners purified.

In the case of B1, the Kd in test [1] is 15 to 45 µM. Moreover, the binding result in test [2], in test [3] and in test [4] was “binds” throughout.

B2: His-AGR2 D132A (plasmid pmAGR2D132A) (natural protein, human)
chain: RDTTVKPGAKKDTKDSRPKLPQTLSRGWGDQLIWTQTYEEALYKSKTSSKPLMIIHHLDECPHSQALKKVFAENKEIQKLAEQFVLLNLVYETTDKHLSPDGQYVPRIMFVAPSLTVRADITGRYSNRLYAYEPADTALLLDNMKKALKLLKTEL
notes: human AGR2 residues 21-175; source: E. coli BL21-AI, purified (Ni-NTA agarose); not shown: His6 (leader as in m1), N-terminal, kept
B2: the binding result in test [3] and in test [4] was “binds” throughout.

B3: His-AGR2 P133A (plasmid pmAGR2P133A) (natural protein, human)
chain: RDTTVKPGAKKDTKDSRPKLPQTLSRGWGDQLIWTQTYEEALYKSKTSSKPLMIIHHLDECPHSQALKKVFAENKEIQKLAEQFVLLNLVYETTDKHLSPDGQYVPRIMFVDASLTVRADITGRYSNRLYAYEPADTALLLDNMKKALKLLKTEL
notes: as for B2
Turning to B3, the binding result in test [3] and in test [4] was “binds” throughout.

B4: His-AGR2 S134A (plasmid pmAGR2S134A) (natural protein, human)
chain: RDTTVKPGAKKDTKDSRPKLPQTLSRGWGDQLIWTQTYEEALYKSKTSSKPLMIIHHLDECPHSQALKKVFAENKEIQKLAEQFVLLNLVYETTDKHLSPDGQYVPRIMFVDPALTVRADITGRYSNRLYAYEPADTALLLDNMKKALKLLKTEL
notes: Ser at 69 as in m1; also called mutant AGR2^S134A; source: E. coli BL21-AI, purified (Ni-NTA agarose; gel filtration buffer exchange for HDX)
B4: the binding result in test [3] and in test [4] was “binds” in each case.

B5: wt-peptide PTTIYY (non-biotinylated hexapeptide) (peptide)
peptide: PTTIYY
notes: also called PTTIYY hexapeptide; source: synthetic peptide
Consider B5, for which, in test [5], the binding result is given as “binds”.

B6: PTTIYY hexapeptide with Tyrosine at position 6 changed to Tryptophan (peptide)
peptide: PTTIYW
notes: also called PTTIYW; source: synthetic peptide (mutational scan library)
On to B6, for which, in test [5], the binding result is “binds”.

B7: PTTIYY hexapeptide with Tyrosine at position 5 changed to Phenylalanine (peptide)
peptide: PTTIFY
notes: also called PTTIFY; source: synthetic peptide (mutational scan library)
Turning to B7, the binding result in test [5] is “binds”.

B8: PTTIYY hexapeptide with the Y-A mutation at position 6 (peptide)
peptide: PTTIYA
notes: also called PTTIYA; source: synthetic peptide (mutational scan library)
In the case of B8, in test [5], the binding result is “binds”.

B9: PTTIYY hexapeptide with Isoleucine at position 4 changed to Leucine (peptide)
peptide: PTTLYY
notes: also called PTTLYY; source: synthetic peptide (mutational scan library)
With B9, the binding result in test [5] is given as “binds”.

B10: PTTIYY hexapeptide with Tyrosine at position 5 changed to Tryptophan (peptide)
peptide: PTTIWY
notes: also called PTTIWY; source: synthetic peptide (mutational scan library)
As to B10, the binding result in test [5] was “binds”.

B11: PTTIYY hexapeptide with Tyrosine at position 6 changed to Phenylalanine (peptide)
peptide: PTTIYF
notes: also called PTTIYF; source: synthetic peptide (mutational scan library)
Take B11: in test [5], the binding result was “binds”.
